From PMC11630628 (Molecular Plant, 2024)

Columns and labels:
[1] = tested on: Arabidopsis root elongation; conditions: ref Hou et al., 2021b, Rhodes et al.; cited from earlier work
Text: Senescence, a crucial biological event in plant development, involves the coordinated breakdown of cellular components to recycle nutrients, aiding adaptation to changing environments. It optimizes nutrient storage and reuse, particularly in leaves, the primary photosynthetic organs. Initiation of leaf senescence prompts various physiological changes, including chlorophyll (Chl) reduction and macromolecule degradation, enabling nutrient recycling that supports the growth of seeds and fruits ([Yang et al., 2014]; [Kim et al., 2018]; [Woo et al., 2019]; [Guo et al., 2021]). Efficient senescence ...

[2] = tested on: ORE1, NAP and SAG12 transcripts; test: qPCR expression of senescence genes in detached leaves; format: cell-based, Arabidopsis thaliana; conditions: 1 μM peptide, 0, 1, 5, 10 h, detached sixth rosette leaves, vs mock, ACTIN reference, three experiments
Text: (§1) Total RNA was isolated from Arabidopsis leaves with the RNAiso Plus (TAKARA) and reverse transcribed using the PrimeScript RT reagent Kit (TAKARA). qPCR reactions were implemented in an Applied Biosystems 7500 Real-Time PCR system with the SYBR Premix Ex Taq II (TAKARA). ACTIN was used as the reference gene for qPCR analyses. The primers used for qPCR are listed in Supplemental Table 2.

[3] = tested on: bak1-5 serk4 double mutant; parameters: method as in Hou et al., 2021b; conditions: ref Hou et al., 2021b; cited from earlier work
[4] = target: T1, MIK2 ectodomain (MIK2^LRR-MBP) (Arabidopsis thaliana, UniProt Q8VZG8); test: MST competitive binding analysis; conditions: MST competition (Figure 5F)
T1 construct: expressing only the ectodomain (residues 45–707); made in house; host or cells: E. coli strain BL21
T1 sequence (Q8VZG8 45-707): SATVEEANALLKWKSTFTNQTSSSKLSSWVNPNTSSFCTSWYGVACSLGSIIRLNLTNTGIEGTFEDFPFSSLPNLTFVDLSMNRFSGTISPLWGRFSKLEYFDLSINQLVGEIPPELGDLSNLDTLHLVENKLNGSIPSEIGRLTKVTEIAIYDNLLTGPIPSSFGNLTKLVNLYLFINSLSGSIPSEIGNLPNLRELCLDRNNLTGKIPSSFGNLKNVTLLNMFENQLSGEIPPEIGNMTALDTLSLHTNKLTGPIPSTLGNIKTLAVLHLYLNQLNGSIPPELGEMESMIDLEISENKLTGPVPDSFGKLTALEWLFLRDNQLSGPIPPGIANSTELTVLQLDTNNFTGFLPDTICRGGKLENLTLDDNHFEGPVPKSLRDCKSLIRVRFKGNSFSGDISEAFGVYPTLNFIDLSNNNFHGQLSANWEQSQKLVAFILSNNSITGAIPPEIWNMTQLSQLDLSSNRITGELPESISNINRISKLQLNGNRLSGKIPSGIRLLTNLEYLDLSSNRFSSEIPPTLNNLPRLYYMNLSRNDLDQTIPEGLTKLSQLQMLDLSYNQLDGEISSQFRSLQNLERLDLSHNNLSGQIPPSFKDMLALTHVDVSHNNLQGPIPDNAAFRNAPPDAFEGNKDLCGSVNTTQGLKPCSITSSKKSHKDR
Procedure: To express MIK2 protein in the soluble form, the truncated sequence of MIK2 (MIK2 ^LRR) expressing only the ectodomain (residues 45–707) was amplified from the gMIK2-Blunt subclone vector and inserted into the pET41 vector, fused with a 6× His-MBP tag. Then, the ectodomain of MIK2 (MIK2^LRR) in the absence of the putative N-terminal signal peptide was expressed in E. coli strain BL21 (TransGen). Cell cultures were grown to 0.6 optical density 600 and then induced with 0.3 mM isopropyl-β-D-thiogalactopyranoside for 30 h at 13°C. The mixture was then centrifuged at 12 000 rpm to separate the cells from the medium. The pellets were resuspended with the binding buffer (20 mM phosphate buffer, 500 mM NaCl, 50 mM imidazole, pH 7.4). The cells were sonicated on ice for 30 min in the lysis buffer (0.2 mg/mL lysozyme, 20 μg/mL DNAse, 1 mM MgCl2, 1 mM PMSF). […]
A Monolith NT.115 system (Nanotemper Technologies) was used to perform MST assays. […] The concentration of purified MIK2^LRR was measured with the BCA Protein Quantification Kit (Vazyme) and then diluted with ddH2O to 20 μM. […] MST results were analyzed using the Nanotemper analysis software (MO. Affinity) ([Jerabek-Willemsen et al., 2011]). […] The dissociation constant Ki was determined using the Ki Finder Tool available on the NanoTemper Technologies website (http://www.nanotempertechnologies.com/get-it-all/tools/ki-finder/).

bik1 pbl1 double mutants = tested on: bik1 pbl1 double mutants; parameters: method as in Hou et al., 2021b; conditions: ref Hou et al., 2021b; cited from earlier work
[5] = tested on: Arabidopsis WT intact rosette leaves; test: Exogenous peptide application on intact rosette leaves; format: in vivo, Arabidopsis thaliana; conditions: SCOOP10 1 μM sprayed, vs mock
Procedure: A. thaliana ecotype Columbia-0 and mutants used in this study include mik2-1 (SALK_06269), mik2-2 (CS419958), proscoop10-1 (SALK_080439), and proscoop10-2 (SALK_027949), which were obtained from ABRC. The proscoop12 CRISPR-Cas9-generated mutants were kindly provided by Dr. Elia Stahi at the University of Lausanne, Switzerland ([Stahl et al., 2022]). Imbibed seeds were incubated at 4°C in a refrigerator for 2 days before sowing on the soil mix (3 parts commercial soil: 1 parts vermiculite) and grown under the long-day condition (16 h light/8 h dark) in a growth chamber with 150 μmol m^−2 s^−1 light intensity. For the senescence phenotyping of detached leaves, the fifth and sixth rosette leaves of 25-day-old plants were removed and placed in Petri dishes with the adaxial side facing up. The Petri dishes were sealed with parafilm to prevent water loss, and the leaves were incubated with deionized water. The application of exogenous peptides followed the previously established method ([Zhang et al., 2022a], [2022b]). For dark-induced leaf senescence assays, detached rosette leaves were incubated in deionized water placed in the dark condition for 6 days. At least three biological replicates were included for each assay. For senescence phenotype analysis under normal growth conditions, homozygous plants were grown alongside Col-0. All data including plant phenotypes and gene expression presented in this study were analyzed with GraphPad Prism 9, and at least three biological replicates were included in each experiment. Chl content, photochemical efficiency of PSII (Fv/Fm ratio), and ion leakage were determined as previously described ([Zhang et al., 2020], [2022b]; [Guo et al., 2022]).
Figure S4. […]
after 1 to 10 days of treatments. Three independent experiments were performed with 8 leaves measured for each […]
determined by one-way ANOVA (α = 0.05) followed by Bonferroni post-hoc test for multiple comparisons (*P ≤ 0.05, ***P […]
indicate statistically significant differences compared to WT, as determined by one-way ANOVA analysis (α = 0.05) […]

PROSCOOP10 transcript = test: qPCR expression of PROSCOOP10 in detached leaves; format: cell-based, Arabidopsis thaliana
Text: as §1

B1: SERINE-RICH ENDOGENOUS PEPTIDE 10 (peptide)
peptide: ALPYHHELFLGRKRMNYYKPNSAIGTPSSTSDHAPGSNGRKLMSIYRPNGDIFTGPSGSGHGGGRTPAP
notes: processed from PROSCOOP10; synthesized by GenScript
- root elongation (published) [1]: inhibiting root elongation
- expression of ORE1, NAP and SAG12 [2]: strongly and relatively quickly induced the expression of the tested transcripts
- root growth inhibition in bak1-5 serk4 (published) [3]: milder phenotype in response to SCOOP10 treatment
- effect of competitor peptide on the MIK2 complex of the other peptide (MST) [4]: limited effect on the MIK2-SCOOP12 complex stability maintenance
- root growth inhibition in bik1 pbl1 (published) (bik1 pbl1 double mutants): only mild alleviation of the SCOOP10-induced root growth inhibition
- Chl content, intact rosette leaves ([5]; 1 to 10 days, WT, sixth rosette leaves): reduced Chl content
- leaf senescence, intact rosette leaves ([5]; 10 days, 4-week-old WT, three experiments, 8 leaves each): significantly accelerated leaf senescence
- Fv/Fm ratio, intact rosette leaves ([5]; WT): reduced Chl content and Fv/Fm ratio
- PROSCOOP10 expression (PROSCOOP10 transcript; 1 μM peptide, detached leaves, vs mock, qPCR): reduced expression
- PROSCOOP10 expression, SCOOP10/SCOOP10-pretreated leaves (PROSCOOP10 transcript; reduction in SCOOP10/SCOOP10-pretreated leaves vs mock, 1 μM): more pronounced
